Test results: IntAct's records for PubMed 19765080

B1: G protein-activated inward rectifier potassium channel 1 (Rattus norvegicus (Rat)), P63251 (parent)
chain: MSALRRKFGDDYQVVTTSSSGSGLQPQGPGQGPQQQLVPKKKRQRFVDKNGRCNVQHGNLGSETSRYLSDLFTTLVDLKWRWNLFIFILTYTVAWLFMASMWWVIAYTRGDLNKAHVGNYTPCVANVYNFPSAFLFFIETEATIGYGYRYITDKCPEGIILFLFQSILGSIVDAFLIGCMFIKMSQPKKRAETLMFSEHAVISMRDGKLTLMFRVGNLRNSHMVSAQIRCKLLKSRQTPEGEFLPLDQLELDVGFSTGADQLFLVSPLTICHVIDAKSPFYDLSQRSMQTEQFEVVVILEGIVETTGMTCQARTSYTEDEVLWGHRFFPVISLEEGFFKVDYSQFHATFEVPTPPYSVKEQEEMLLMSSPLIAPAITNSKERHNSVECLDGLDDISTKLPSKLQKITGREDFPKKLLRMSSTTSEKAYSLGDLPMKLQRISSVPGNSEEKLVSKTTKMLSDPMSQSVADLPPKLQKMAGGPTRMEGNLPAKLRKMNSDRFT

Assays:
Details in all cases: with kapca_bovin PRKACA
[1] = variants of: B1
[2] = variants of: B1; remark: listed apart in the source
[3] = variants of: B1; remark: listed apart in the source
[4] = variants of: B1; remark: listed apart in the source
[5] = variants of: B1; remark: listed apart in the source

Row | effect of a mutation on the interaction [1] | effect of a mutation on the interaction [2] | effect of a mutation on the interaction [3] | effect of a mutation on the interaction [4] | effect of a mutation on the interaction [5] | Variant
1 | decreasing interaction | disrupting interaction |  |  |  | S401C
2 |  | disrupting interaction | decreasing interaction |  |  | T407C
3 |  |  |  | disrupting interaction | decreasing interaction | S385C
